Measurements from US20050112748A1 (published 2005).

Target: T1, N-terminal portion of N-WASP (1st to 275th amino acid residues) fused to the Gal4 activation domain (pACT2) (UniProt Q95107 1-275)
T1 construct: range 1-275; Yeast two-hybrid prey; also called CRIB-motif-containing N-terminal portion of N-WASP; N-WASP CRIB motif
Test: yeast two-hybrid, beta-galactosidase colony-lift filter assay
Text: The cDNAs encoding the wild-type, constitutively active, and dominant-negative mutants of Cdc42, Tc10, and RhoT were ligated to the Gal4 DNA-binding domain of the pGBT9 vector (Clontech). A cDNA fragment encoding the N-terminal portion of N-WASP (corresponding to 1st to 275th amino acid residues) (EMBO J. 15: 5326-5335 (1996), Nature 391: 93-96 (1998)) was fused to the Gal4 activation domain of pACT2 vector (Clontech) The yeast strain Y190 was sequentially transformed with the bait and prey plasmids. Double transformants were selected on plates of minimal synthetic dropout medium lacking leucine and tryptophan (SD/-Leu/-Trp). The activation of lacz reporter gene was analyzed by β-galactosidase colony-lift filter assay.
Cdc42 generates filopodia through binding to the CRIB motif (J. Biol. Chem. 270: 29071-29074 (1995)) of its target protein N-WASP, which activates Arp2/3-complex- and profilin-mediated actin polymerization (EMBO J. 15: 5326-5335 (1996), Nature 391: 93-96 (1998), Cell 97: 221-231 (1999)). To determine whether Tc10 and RhoT also bound to N-WASP, the yeast two-hybrid interaction assay was performed.

T1 sequence (Q95107 1-275 limits assumed): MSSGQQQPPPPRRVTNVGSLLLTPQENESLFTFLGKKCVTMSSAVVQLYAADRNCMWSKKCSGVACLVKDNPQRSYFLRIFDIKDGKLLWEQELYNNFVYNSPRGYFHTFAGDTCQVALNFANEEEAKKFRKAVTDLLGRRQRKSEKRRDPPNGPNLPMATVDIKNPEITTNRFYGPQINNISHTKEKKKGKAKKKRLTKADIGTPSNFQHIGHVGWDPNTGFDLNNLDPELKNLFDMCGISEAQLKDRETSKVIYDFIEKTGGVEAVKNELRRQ

B1: Dominant-negative mouse RhoT(T35N) fused to the Gal4 DNA-binding domain (pGBT9) (enzyme, not shown: small tags and cut ends)
chain: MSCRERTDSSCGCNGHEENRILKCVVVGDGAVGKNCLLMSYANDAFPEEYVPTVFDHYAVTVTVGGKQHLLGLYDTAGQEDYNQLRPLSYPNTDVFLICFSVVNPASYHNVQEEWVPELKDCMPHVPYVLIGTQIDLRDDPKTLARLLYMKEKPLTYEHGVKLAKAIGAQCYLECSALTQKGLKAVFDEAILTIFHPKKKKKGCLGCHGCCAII
notes: Yeast two-hybrid bait; also called RhoT(T3SN); RhoT DN
- binding result: no binding
